Results reported in patent US20210139559A1 (XL PROTEIN, published 2021).

B1: PAS(200)-PDGFRαD123-VEGFR1D2/R2D3 (receptor)
chain: HHHHHHASPAAPAPASPAAPAPSAPAASPAAPAPASPAAPAPSAPAASPAAPAPASPAAPAPSAPAASPAAPAPASPAAPAPSAPAASPAAPAPASPAAPAPSAPAASPAAPAPASPAAPAPSAPAASPAAPAPASPAAPAPSAPAASPAAPAPASPAAPAPSAPAASPAAPAPASPAAPAPSAPAASPAAPAPASPAAPAPSAPAQLSLPSILPNENEKVVQLNSSFSLRCFGESEVSWQYPMSEEESSDVEIRNEENNSGLFVTVLEVSSASAAHTGLYTCYYNHTQTEENELEGRHIYIYVPDPDVAFVPLGMTDYLVIVEDDDSAIIPCRTTDPETPVTLHNSEGVVPASYDSRQGFNGTFTVGPYICEATVKGKKFQTIPFNVYALKATSELDLEMEALKTVYKSGETIVVTCAVFNNEVVDLQWTYPGEVKGKGITMLEEIKVPSIKLVYTLTVPEATVKDSGDYECAARQATREVKEMKKVTISVHEKGSDTGRPFVEMYSEIPEIIHMTEGRELVIPCRVTSPNITVTLKKFPLDTLIPDGKRIIWDSRKGFIISNATYKEIGLLTCEATVNGHLYKTNYLTHRQTNTIIDVVLSPSHGIELSVGEKLVLNCTARTELNVGIDFNWEYPSSKHQHKKLVNRDLKTQSGSEMKKFLSTLTIDGVTRSDQGLYTCAASSGLMTKKNSTFVRVHEK
notes: the tag stands at the N-terminus; also called EPS1110P
B2: PDGFRαD123-PAS(300)-VEGFR1D2/R2D3 (receptor)
chain: QLSLPSILPNENEKVVQLNSSFSLRCFGESEVSWQYPMSEEESSDVEIRNEENNSGLFVTVLEVSSASAAHTGLYTCYYNHTQTEENELEGRHIYIYVPDPDVAFVPLGMTDYLVIVEDDDSAIIPCRTTDPETPVTLHNSEGVVPASYDSRQGFNGTFTVGPYICEATVKGKKFQTIPFNVYALKATSELDLEMEALKTVYKSGETIVVTCAVFNNEVVDLQWTYPGEVKGKGITMLEEIKVPSIKLVYTLTVPEATVKDSGDYECAARQATREVKEMKKVTISVHEKGASPAAPAPASPAAPAPSAPAASPAAPAPASPAAPAPSAPAASPAAPAPASPAAPAPSAPAASPAAPAPASPAAPAPSAPAASPAAPAPASPAAPAPSAPAASPAAPAPASPAAPAPSAPAASPAAPAPASPAAPAPSAPAASPAAPAPASPAAPAPSAPAASPAAPAPASPAAPAPSAPAASPAAPAPASPAAPAPSAPAASPAAPAPASPAAPAPSAPAASPAAPAPASPAAPAPSAPAASPAAPAPASPAAPAPSAPAASPAAPAPASPAAPAPSAPAASPAAPAPASPAAPAPSAPASDTGRPFVEMYSEIPEIIHMTEGRELVIPCRVTSPNITVTLKKFPLDTLIPDGKRIIWDSRKGFIISNATYKEIGLLTCEATVNGHLYKTNYLTHRQTNTIIDVVLSPSHGIELSVGEKLVLNCTARTELNVGIDFNWEYPSSKHQHKKLVNRDLKTQSGSEMKKFLSTLTIDGVTRSDQGLYTCAASSGLMTKKNSTFVRVHEKHHHHHH
notes: Expressed in CHO-3E7 cells, purified over a Ni column; also called EPS1103P
B3: PDGFRαD123-PAS(600)-VEGFR1D2/R2D3 (receptor)
chain: QLSLPSILPNENEKVVQLNSSFSLRCFGESEVSWQYPMSEEESSDVEIRNEENNSGLFVTVLEVSSASAAHTGLYTCYYNHTQTEENELEGRHIYIYVPDPDVAFVPLGMTDYLVIVEDDDSAIIPCRTTDPETPVTLHNSEGVVPASYDSRQGFNGTFTVGPYICEATVKGKKFQTIPFNVYALKATSELDLEMEALKTVYKSGETIVVTCAVFNNEVVDLQWTYPGEVKGKGITMLEEIKVPSIKLVYTLTVPEATVKDSGDYECAARQATREVKEMKKVTISVHEKGASPAAPAPASPAAPAPSAPAASPAAPAPASPAAPAPSAPAASPAAPAPASPAAPAPSAPAASPAAPAPASPAAPAPSAPAASPAAPAPASPAAPAPSAPAASPAAPAPASPAAPAPSAPAASPAAPAPASPAAPAPSAPAASPAAPAPASPAAPAPSAPAASPAAPAPASPAAPAPSAPAASPAAPAPASPAAPAPSAPAASPAAPAPASPAAPAPSAPAASPAAPAPASPAAPAPSAPAASPAAPAPASPAAPAPSAPAASPAAPAPASPAAPAPSAPAASPAAPAPASPAAPAPSAPAASPAAPAPASPAAPAPSAPAASPAAPAPASPAAPAPSAPAASPAAPAPASPAAPAPSAPAASPAAPAPASPAAPAPSAPAASPAAPAPASPAAPAPSAPAASPAAPAPASPAAPAPSAPAASPAAPAPASPAAPAPSAPAASPAAPAPASPAAPAPSAPAASPAAPAPASPAAPAPSAPAASPAAPAPASPAAPAPSAPAASPAAPAPASPAAPAPSAPAASPAAPAPASPAAPAPSAPAASPAAPAPASPAAPAPSAPAASPAAPAPASPAAPAPSAPAASPAAPAPASPAAPAPSAPAASDTGRPFVEMYSEIPEIIHMTEGRELVIPCRVTSPNITVTLKKFPLDTLIPDGKRIIWDSRKGFIISNATYKEIGLLTCEATVNGHLYKTNYLTHRQTNTIIDVVLSPSHGIELSVGEKLVLNCTARTELNVGIDFNWEYPSSKHQHKKLVNRDLKTQSGSEMKKFLSTLTIDGVTRSDQGLYTCAASSGLMTKKNSTFVRVHEKHHHHHH
notes: also called EPS1113P
B4: VEGFR1D2/R2D3-(GGGGS)3-PAS(600)-(GGGGS)3-PDGFRαD123 (receptor)
chain: SDTGRPFVEMYSEIPEIIHMTEGRELVIPCRVTSPNITVTLKKFPLDTLIPDGKRIIWDSRKGFIISNATYKEIGLLTCEATVNGHLYKTNYLTHRQTNTIIDVVLSPSHGIELSVGEKLVLNCTARTELNVGIDFNWEYPSSKHQHKKLVNRDLKTQSGSEMKKFLSTLTIDGVTRSDQGLYTCAASSGLMTKKNSTFVRVHEKGGGGSGGGGSGGGGSASPAAPAPASPAAPAPSAPAASPAAPAPASPAAPAPSAPAASPAAPAPASPAAPAPSAPAASPAAPAPASPAAPAPSAPAASPAAPAPASPAAPAPSAPAASPAAPAPASPAAPAPSAPAASPAAPAPASPAAPAPSAPAASPAAPAPASPAAPAPSAPAASPAAPAPASPAAPAPSAPAASPAAPAPASPAAPAPSAPAASPAAPAPASPAAPAPSAPAASPAAPAPASPAAPAPSAPAASPAAPAPASPAAPAPSAPAASPAAPAPASPAAPAPSAPAASPAAPAPASPAAPAPSAPAASPAAPAPASPAAPAPSAPAASPAAPAPASPAAPAPSAPAASPAAPAPASPAAPAPSAPAASPAAPAPASPAAPAPSAPAASPAAPAPASPAAPAPSAPAASPAAPAPASPAAPAPSAPAASPAAPAPASPAAPAPSAPAASPAAPAPASPAAPAPSAPAASPAAPAPASPAAPAPSAPAASPAAPAPASPAAPAPSAPAASPAAPAPASPAAPAPSAPAASPAAPAPASPAAPAPSAPAASPAAPAPASPAAPAPSAPAASPAAPAPASPAAPAPSAPAASPAAPAPASPAAPAPSAPAAGGGGSGGGGSGGGGSQLSLPSILPNENEKVVQLNSSFSLRCFGESEVSWQYPMSEEESSDVEIRNEENNSGLFVTVLEVSSASAAHTGLYTCYYNHTQTEENELEGRHIYIYVPDPDVAFVPLGMTDYLVIVEDDDSAIIPCRTTDPETPVTLHNSEGVVPASYDSRQGFNGTFTVGPYICEATVKGKKFQTIPFNVYALKATSELDLEMEALKTVYKSGETIVVTCAVFNNEVVDLQWTYPGEVKGKGITMLEEIKVPSIKLVYTLTVPEATVKDSGDYECAARQATREVKEMKKVTISVHEKGHHHHHH
notes: also called EPS1115P
B5: PDGFRαD123-(GGGGS)3-PAS(600)-(GGGGS)3-VEGFR1D2/R2D3 (receptor)
chain: QLSLPSILPNENEKVVQLNSSFSLRCFGESEVSWQYPMSEEESSDVEIRNEENNSGLFVTVLEVSSASAAHTGLYTCYYNHTQTEENELEGRHIYIYVPDPDVAFVPLGMTDYLVIVEDDDSAIIPCRTTDPETPVTLHNSEGVVPASYDSRQGFNGTFTVGPYICEATVKGKKFQTIPFNVYALKATSELDLEMEALKTVYKSGETIVVTCAVFNNEVVDLQWTYPGEVKGKGITMLEEIKVPSIKLVYTLTVPEATVKDSGDYECAARQATREVKEMKKVTISVHEKGGGGGSGGGGSGGGGSASPAAPAPASPAAPAPSAPAASPAAPAPASPAAPAPSAPAASPAAPAPASPAAPAPSAPAASPAAPAPASPAAPAPSAPAASPAAPAPASPAAPAPSAPAASPAAPAPASPAAPAPSAPAASPAAPAPASPAAPAPSAPAASPAAPAPASPAAPAPSAPAASPAAPAPASPAAPAPSAPAASPAAPAPASPAAPAPSAPAASPAAPAPASPAAPAPSAPAASPAAPAPASPAAPAPSAPAASPAAPAPASPAAPAPSAPAASPAAPAPASPAAPAPSAPAASPAAPAPASPAAPAPSAPAASPAAPAPASPAAPAPSAPAASPAAPAPASPAAPAPSAPAASPAAPAPASPAAPAPSAPAASPAAPAPASPAAPAPSAPAASPAAPAPASPAAPAPSAPAASPAAPAPASPAAPAPSAPAASPAAPAPASPAAPAPSAPAASPAAPAPASPAAPAPSAPAASPAAPAPASPAAPAPSAPAASPAAPAPASPAAPAPSAPAASPAAPAPASPAAPAPSAPAASPAAPAPASPAAPAPSAPAASPAAPAPASPAAPAPSAPAASPAAPAPASPAAPAPSAPAASPAAPAPASPAAPAPSAPAAGGGGSGGGGSGGGGSSDTGRPFVEMYSEIPEIIHMTEGRELVIPCRVTSPNITVTLKKFPLDTLIPDGKRIIWDSRKGFIISNATYKEIGLLTCEATVNGHLYKTNYLTHRQTNTIIDVVLSPSHGIELSVGEKLVLNCTARTELNVGIDFNWEYPSSKHQHKKLVNRDLKTQSGSEMKKFLSTLTIDGVTRSDQGLYTCAASSGLMTKKNSTFVRVHEKHHHHHH
notes: also called EPS1114P
B6: PAS(200)-VEGFR1D2/R2D3-PDGFRαD123 (receptor)
chain: HHHHHHASPAAPAPASPAAPAPSAPAASPAAPAPASPAAPAPSAPAASPAAPAPASPAAPAPSAPAASPAAPAPASPAAPAPSAPAASPAAPAPASPAAPAPSAPAASPAAPAPASPAAPAPSAPAASPAAPAPASPAAPAPSAPAASPAAPAPASPAAPAPSAPAASPAAPAPASPAAPAPSAPAASPAAPAPASPAAPAPSAPASDTGRPFVEMYSEIPEIIHMTEGRELVIPCRVTSPNITVTLKKFPLDTLIPDGKRIIWDSRKGFIISNATYKEIGLLTCEATVNGHLYKTNYLTHRQTNTIIDVVLSPSHGIELSVGEKLVLNCTARTELNVGIDFNWEYPSSKHQHKKLVNRDLKTQSGSEMKKFLSTLTIDGVTRSDQGLYTCAASSGLMTKKNSTFVRVHEKQLSLPSILPNENEKVVQLNSSFSLRCFGESEVSWQYPMSEEESSDVEIRNEENNSGLFVTVLEVSSASAAHTGLYTCYYNHTQTEENELEGRHIYIYVPDPDVAFVPLGMTDYLVIVEDDDSAIIPCRTTDPETPVTLHNSEGVVPASYDSRQGFNGTFTVGPYICEATVKGKKFQTIPFNVYALKATSELDLEMEALKTVYKSGETIVVTCAVFNNEVVDLQWTYPGEVKGKGITMLEEIKVPSIKLVYTLTVPEATVKDSGDYECAARQATREVKEMKKVTISVHEKG
notes: the tag stands at the N-terminus; also called EPS1109P

The binders below were run against T1, human VEGF165 ligand (human, UniProt P15692-4 27-191) (assay: serial dilution mixed with 50 pM human VEGF165 in solution, unbound VEGF165 measured by ELISA).
T1 construct: also called VEGF-A165
T1 sequence (P15692 other isoform, or with tags, fused parts or gaps limits assumed): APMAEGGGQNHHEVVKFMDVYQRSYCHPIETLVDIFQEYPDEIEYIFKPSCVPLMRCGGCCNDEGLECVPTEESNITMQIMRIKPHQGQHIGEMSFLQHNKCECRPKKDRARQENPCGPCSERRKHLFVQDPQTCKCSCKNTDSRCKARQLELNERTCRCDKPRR
Experimental: The amount of unbound VEGF₁₆₅ was then measured by a human VEGF-specific ELISA (Human VEGF DuoSet ELISA kit, R&D Systems, CAT. No. DY293B-05).
Unbound human VEGF₁₆₅ or PDGF-BB was calculated using 4 parameters curve with the absorbance value. And the IC₅₀ of the tested fusion proteins and the reference was calculated using 4 parameters curve with unbound human VEGF₁₆₅ or PDGF-BB.
For B1, the IC50 was 0.331 nM.
Binder B2 has an IC50 of 0.869 nM.
B3 was tested, and the IC50 was 0.646 nM.
For B4, the IC50 was 0.44 nM.
In the case of B5, the IC50 is reported as 0.506 nM.
With B6 the IC50 was 0.218 nM.
